IntAct's records for PubMed 31515488

B1: Interleukin-1 receptor-associated kinase 4 (Homo sapiens), Q9NWZ3 (parent)
chain: MNKPITPSTYVRCLNVGLIRKLSDFIDPQEGWKKLAVAIKKPSGDDRYNQFHIRRFEALLQTGKSPTSELLFDWGTTNCTVGDLVDLLIQNEFFAPASLLLPDAVPKTANTLPSKEAITVQQKQMPFCDKDRTLMTPVQNLEQSYMPPDSSSPENKSLEVSDTRFHSFSFYELKNVTNNFDERPISVGGNKMGEGGFGVVYKGYVNNTTVAVKKLAAMVDITTEELKQQFDQEIKVMAKCQHENLVELLGFSSDGDDLCLVYVYMPNGSLLDRLSCLDGTPPLSWHMRCKIAQGAANGINFLHENHHIHRDIKSANILLDEAFTAKISDFGLARASEKFAQTVMTSRIVGTTAYMAPEALRGEITPKSDIYSFGVVLLEIITGLPAVDEHREPQLLLDIKEEIEDEEKTIEDYIDKKMNDADSTSVEAMYSVASQCLHEKKNKRPDIKKVQQLLQEMTAS
B2: E3 ubiquitin-protein ligase TRIM32 (Homo sapiens), Q13049 (parent)
chain: MAAAAASHLNLDALREVLECPICMESFTEEQLRPKLLHCGHTICRQCLEKLLASSINGVRCPFCSKITRITSLTQLTDNLTVLKIIDTAGLSEAVGLLMCRSCGRRLPRQFCRSCGLVLCEPCREADHQPPGHCTLPVKEAAEERRRDFGEKLTRLRELMGELQRRKAALEGVSKDLQARYKAVLQEYGHEERRVQDELARSRKFFTGSLAEVEKSNSQVVEEQSYLLNIAEVQAVSRCDYFLAKIKQADVALLEETADEEEPELTASLPRELTLQDVELLKVGHVGPLQIGQAVKKPRTVNVEDSWAMEATASAASTSVTFREMDMSPEEVVASPRASPAKQRGPEAASNIQQCLFLKKMGAKGSTPGMFNLPVSLYVTSQGEVLVADRGNYRIQVFTRKGFLKEIRRSPSGIDSFVLSFLGADLPNLTPLSVAMNCQGLIGVTDSYDNSLKVYTLDGHCVACHRSQLSKPWGITALPSGQFVVTDVEGGKLWCFTVDRGSGVVKYSCLCSAVRPKFVTCDAEGTVYFTQGLGLNLENRQNEHHLEGGFSIGSVGPDGQLGRQISHFFSENEDFRCIAGMCVDARGDLIVADSSRKEILHFPKGGGYSVLIREGLTCPVGIALTPKGQLLVLDCWDHCIKIYSYHLRRYSTP
partner: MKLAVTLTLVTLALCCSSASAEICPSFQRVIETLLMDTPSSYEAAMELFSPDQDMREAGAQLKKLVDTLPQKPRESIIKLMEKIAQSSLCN
B3: Kelch-like protein 40 (Homo sapiens), Q2TBA0 (parent)
chain: MALGLEQAEEQRLYQQTLLQDGLKDMLDHGKFLDCVVRAGEREFPCHRLVLAACSPYFRARFLAEPERAGELHLEEVSPDVVAQVLHYLYTSEIALDEASVQDLFAAAHRFQIPSIFTICVSFLQKRLCLSNCLAVFRLGLLLDCARLAVAARDFICAHFTLVARDADFLGLSADELIAIISSDGLNVEKEEAVFEAVMRWAGSGDAEAQAERQRALPTVFESVRCRLLPRAFLESRVERHPLVRAQPELLRKVQMVKDAHEGRITTLRKKKKGKDGAGAKEADKGTSKAKAEEDEEAERILPGILNDTLRFGMFLQDLIFMISEEGAVAYDPAANECYCASLSNQVPKNHVSLVTKENQVFVAGGLFYNEDNKEDPMSAYFLQFDHLDSEWLGMPPLPSPRCLFGLGEALNSIYVVGGREIKDGERCLDSVMCYDRLSFKWGESDPLPYVVYGHTVLSHMDLVYVIGGKGSDRKCLNKMCVYDPKKFEWKELAPMQTARSLFGATVHDGRIIVAAGVTDTGLTSSAEVYSITDNKWAPFEAFPQERSSLSLVSLVGTLYAIGGFATLETESGELVPTELNDIWRYNEEEKKWEGVLREIAYAAGATFLPVRLNVLCLTKM
B4: Protein mab-21-like 3 (Homo sapiens), Q8N8X9 (parent)
chain: MKYLTVGDLEDCLLNKVDLRRQQISQAVEEVQKVVHHLTTNISNQDIRFQAVPYSDTYNENIKVLAPSQFLVTVPIKGLAGYREAREQHWRYYTLQGTRLPCPLRDPEGLQQWLEVEQFMKSLWQWHETDVNIDGDIVPAKVLLVFRKLVENAVRTCHLSGKVSLLGNRSAVWVAVETSAYQVELELVPAVEIPTTWSKKARWPRCLQRWPSQERVECIKSFGFNLLACSNYHWQLSFLRAEQVLLEQLDEDGGCRRKCFQVMRHLKEDIWCPGNRPVITSHHLQTVLFWTCEKYPHFKDWQVFSKAFLRLVRKLHKCVSQHFLKHYFVRNSNLFQCTNPTELDTVAQKLATFLKNPQIGPP
partner: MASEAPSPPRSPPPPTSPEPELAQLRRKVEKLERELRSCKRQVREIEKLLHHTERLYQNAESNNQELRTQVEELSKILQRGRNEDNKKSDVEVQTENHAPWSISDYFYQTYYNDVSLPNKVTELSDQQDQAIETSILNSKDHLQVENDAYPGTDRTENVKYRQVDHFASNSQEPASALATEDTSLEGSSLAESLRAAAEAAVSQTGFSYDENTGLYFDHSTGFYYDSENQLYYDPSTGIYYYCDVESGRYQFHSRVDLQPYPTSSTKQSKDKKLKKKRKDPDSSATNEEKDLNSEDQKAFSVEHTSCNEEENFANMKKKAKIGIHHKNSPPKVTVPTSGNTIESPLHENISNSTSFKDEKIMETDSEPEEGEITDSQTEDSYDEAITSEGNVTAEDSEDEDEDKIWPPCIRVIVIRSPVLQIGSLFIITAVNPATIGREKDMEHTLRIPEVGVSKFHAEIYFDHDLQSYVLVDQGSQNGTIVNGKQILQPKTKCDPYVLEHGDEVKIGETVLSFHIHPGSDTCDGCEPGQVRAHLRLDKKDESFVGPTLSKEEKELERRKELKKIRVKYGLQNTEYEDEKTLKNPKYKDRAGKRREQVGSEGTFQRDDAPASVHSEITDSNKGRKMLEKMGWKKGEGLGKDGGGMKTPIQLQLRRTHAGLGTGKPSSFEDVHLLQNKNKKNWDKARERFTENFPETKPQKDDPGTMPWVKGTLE
B5: Myomegalin (Homo sapiens), Q5VU43-2 (parent)
chain: MKEICRICARELCGNQRRWIFHTASKLNLQVLLSHVLGKDVPRDGKAEFACSKCAFMLDRIYRFDTVIARIEALSIERLQKLLLEKDRLKFCIASMYRKNNDDSGAEIKAGNGTVDMSVLPDARYSALLQEDFAYSGFECWVENEDQIQEPHSCHGSEGPGNRPRRCRGCAALRVADSDYEAICKVPRKVARSISCGPSSRWSTSICTEEPALSEVGPPDLASTKVPPDGESMEEETPGSSVESLDASVQASPPQQKDEETERSAKELGKCDCCSDDQAPQHGCNHKLELALSMIKGLDYKPIQSPRGSRLPIPVKSSLPGAKPGPSMTDGVSSGFLNRSLKPLYKTPVSYPLELSDLQELWDDLCEDYLPLRVQPMTEELLKQQKLNSHETTITQQSVSDSHLAELQEKIQQTEATNKILQEKLNEMSYELKCAQESSQKQDGTIQNLKETLKSRERETEELYQVIEGQNDTMAKLREMLHQSQLGQLHSSEGTSPAQQQVALLDLQSALFCSQLEIQKLQRVVRQKERQLADAKQCVQFVEAAAHESEQQKEASWKHNQELRKALQQLQEELQNKSQQLRAWEAEKYNEIRTQEQNIQHLNHSLSHKEQLLQEFRELLQYRDNSDKTLEANEMLLEKLRQRIHDKAVALERAIDEKFSALEEKEKELRQLRLAVRERDHDLERLRDVLSSNEATMQSMESLLRAKGLEVEQLSTTCQNLQWLKEEMETKFSRWQKEQESIIQQLQTSLHDRNKEVEDLSATLLCKLGPGQSEIAEELCQRLQRKERMLQDLLSDRNKQVLEHEMEIQGLLQSVSTREQESQAAAEKLVQALMERNSELQALRQYLGGRDSLMSQAPISNQQAEVTPTGRLGKQTDQGSMQIPSRDDSTSLTAKEDVSIPRSTLGDLDTVAGLEKELSNAKEELELMAKKERESQMELSALQSMMAVQEEELQVQAADMESLTRNIQIKEDLIKDLQMQLVDPEDIPAMERLTQEVLLLREKVASVESQGQEISGNRRQQLLLMLEGLVDERSRLNEALQAERQLYSSLVKFHAHPESSERDRTLQVELEGAQVLRSRLEEVLGRSLERLNRLETLAAIGGAAAGDDTEDTSTEFTDSIEEEAAHHSHQQL
partner: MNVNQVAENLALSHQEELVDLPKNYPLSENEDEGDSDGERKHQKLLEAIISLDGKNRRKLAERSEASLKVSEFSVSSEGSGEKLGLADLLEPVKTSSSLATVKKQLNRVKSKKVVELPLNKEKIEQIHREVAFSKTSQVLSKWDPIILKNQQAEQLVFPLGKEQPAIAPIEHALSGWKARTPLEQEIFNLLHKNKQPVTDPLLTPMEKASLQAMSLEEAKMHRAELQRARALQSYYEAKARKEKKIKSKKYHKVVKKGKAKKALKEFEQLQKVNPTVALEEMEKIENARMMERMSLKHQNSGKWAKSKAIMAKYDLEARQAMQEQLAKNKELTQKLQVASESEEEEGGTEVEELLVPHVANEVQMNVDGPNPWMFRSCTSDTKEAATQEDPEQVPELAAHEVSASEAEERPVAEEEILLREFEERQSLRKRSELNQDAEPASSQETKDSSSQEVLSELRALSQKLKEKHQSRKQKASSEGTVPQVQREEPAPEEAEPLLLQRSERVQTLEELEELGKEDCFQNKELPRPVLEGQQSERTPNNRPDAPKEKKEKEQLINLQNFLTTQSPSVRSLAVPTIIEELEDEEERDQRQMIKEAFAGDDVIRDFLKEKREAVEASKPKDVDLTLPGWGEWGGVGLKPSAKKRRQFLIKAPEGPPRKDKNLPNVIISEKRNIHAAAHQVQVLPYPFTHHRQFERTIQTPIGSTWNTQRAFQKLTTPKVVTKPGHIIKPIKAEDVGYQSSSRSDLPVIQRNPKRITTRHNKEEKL

Variants of: B1
Conditions: with myd88_human MYD88, Q99836
myd88_human MYD88, Q99836, sequence (Q99836 whole entry): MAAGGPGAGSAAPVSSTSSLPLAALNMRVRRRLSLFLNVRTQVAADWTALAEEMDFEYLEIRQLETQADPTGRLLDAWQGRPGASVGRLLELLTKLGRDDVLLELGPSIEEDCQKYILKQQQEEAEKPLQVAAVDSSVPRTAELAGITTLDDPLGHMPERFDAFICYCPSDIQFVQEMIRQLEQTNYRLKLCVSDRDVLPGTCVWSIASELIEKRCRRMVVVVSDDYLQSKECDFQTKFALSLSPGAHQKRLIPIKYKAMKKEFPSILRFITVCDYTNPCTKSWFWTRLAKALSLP

effect of a mutation on the interaction	Variant
disrupting interaction strength	G298D
disrupting interaction strength	D73E
disrupting interaction strength	R12C
with no effect	R391H
disrupting interaction strength	T76I
with no effect	A428T

Variants of: B2
Conditions: with uter_human SCGB1A1, P11684

effect of a mutation on the interaction	Variant
disrupting interaction strength	E547A

Variants of: B3
Conditions: with smip4_human SPMIP4, Q8N865
smip4_human SPMIP4, Q8N865, sequence (Q8N865 whole entry): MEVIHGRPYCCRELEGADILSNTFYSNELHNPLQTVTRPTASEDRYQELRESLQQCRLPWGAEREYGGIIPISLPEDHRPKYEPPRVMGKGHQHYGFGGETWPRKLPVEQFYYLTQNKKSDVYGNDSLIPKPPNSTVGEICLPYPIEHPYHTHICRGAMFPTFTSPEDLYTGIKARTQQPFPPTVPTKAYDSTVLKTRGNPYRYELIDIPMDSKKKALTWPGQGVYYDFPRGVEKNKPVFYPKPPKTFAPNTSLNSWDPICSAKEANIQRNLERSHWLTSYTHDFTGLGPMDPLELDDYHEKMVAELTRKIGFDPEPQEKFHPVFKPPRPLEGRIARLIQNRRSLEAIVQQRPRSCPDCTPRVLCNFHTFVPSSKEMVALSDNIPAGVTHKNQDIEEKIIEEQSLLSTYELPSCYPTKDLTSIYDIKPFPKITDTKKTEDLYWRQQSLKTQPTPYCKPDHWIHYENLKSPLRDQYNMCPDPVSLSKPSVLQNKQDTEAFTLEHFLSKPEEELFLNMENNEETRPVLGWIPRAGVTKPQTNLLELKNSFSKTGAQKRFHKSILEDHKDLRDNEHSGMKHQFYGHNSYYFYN

effect of a mutation on the interaction	Variant
with no effect	D484N

Variants of: B4
Conditions: with aggf1_human AGGF1, Q8N302

effect of a mutation on the interaction	Variant
with no effect	T338A

Variants of: B5
Conditions: with ut14c_human UTP14C

effect of a mutation on the interaction	Variant
with no effect	N28S
